Consider two molecules from article PMC10204903 (Cell, 2022).

Common to all, as to experiment: ELISA
(In general: An ELISA detects its analyte on a solid surface through an enzyme-linked reagent.)

The target of one experiment is BDBV GP ectodomain (Bundibugyo virus; strain of the bought …, UniProt B8XCN0).
Experiment [1] deals with EBOV soluble glycoprotein (sGP) (Ebola virus (EBOV), UniProt P60170).
In a further experiment the target is SUDV GP ectodomain (Sudan virus (SUDV), UniProt Q7T9D9).

B1: mAb 9.20.1C3 (antibody, V domains shown)
VH: QVQLVQSGAEVKKPGSSVKVACKVSGGTFSSYTISWVRQAPGQGLEWMGGIIPSFGVGHYSQKFRDRVTLTADKSTTTAFLELSSVRSEDTALYYCAILGTFNWKSGGNYFGPWGQGTLVTVSS
VL: DIVLTQSPDSLAASLGERATISCKSSHSVLYSSNNKDFFAWYQQKPGQPPKLLISWASTRESGVPVRFNGGGSGTHFTLTISSLQAEDVAVYYCQQYFSSPITFGQGTRLEIK
For the molecule B1, the figures for the binding result (with BDBV GP ectodomain; in experiment [1]; with SUDV GP ectodomain) were “binds”, “no binding” and “binds”, respectively.

B2: mAb 5.24.1C11 (antibody, V domains shown)
VH: QVQLVQSGAEVKKPGASVKVSCRTSGYTFSSYNIHWVRQAPGQGLEWMGVINPYGRSTTLYARRFRDRVTMTRDTSTSTVYMELSSLRSEDTAVYFCGRLYSGAPYGLDVWGQGSTVTVSS
VL: DIVMTQSPLSLPVTPGEPASISCRSSQSLLHSNGYNYVDWYLQKPGQSPQLLIYLGSSRASGVPDRFSGSGSGTDFTLKISRVETEDVGIYYCMQGLQTPLTFGGGTKVEIK
As for B2, the binding result was “binds” with BDBV GP ectodomain, “no binding” in experiment [1] and “binds” with SUDV GP ectodomain.
